The target of this test is gcKPNB3-FLAG (grass carp importin beta 3, FLAG-tagged) (grass carp). Nature of the test: co-IP; co-IP of IRF3 with gcKPNB3 from GCRV-infected CIK cells with gcDDX56 overexpressed (+, 4 µg; ++, 8 µg plasmid) or knocked down by siRNA; bands quantified with ImageJ.

On to “gcIRF3-HA (grass carp IRF3, HA-tagged) (natural protein)”, for which the fold change of the interaction on gcDDX56 knockdown against the siRNA control was 3.23 fold.
